Values quoted from earlier work, collected in paper PMC5800599.

Target: FcγRIIIa/CD16A (Homo sapiens) (UniProt P08637)
Sequence (P08637 17-254): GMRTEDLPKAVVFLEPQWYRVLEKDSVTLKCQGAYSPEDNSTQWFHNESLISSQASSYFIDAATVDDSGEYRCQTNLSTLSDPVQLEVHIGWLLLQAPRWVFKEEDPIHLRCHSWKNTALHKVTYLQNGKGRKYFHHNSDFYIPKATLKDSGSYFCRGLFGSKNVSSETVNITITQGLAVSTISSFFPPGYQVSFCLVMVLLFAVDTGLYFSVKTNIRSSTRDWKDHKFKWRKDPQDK

## hIgG1 Fc Fc (from UniProt P01857)
  Kd: 0.55 µM
